Molecular target: cell-surface PDGF receptors (on rat stellate cells) (rat)
Assay: cell-based or functional assay

“PDGF-D GFD dimer (from UniProt Q5RA73 250-370) (ligand)” gave a luciferase reporter (SRE/STAT) RLU in rat stellate cell lysate at 0.3 ng/ml of 160 RLU, a luciferase reporter (SRE/STAT) RLU in rat stellate cell lysate at 1 ng/ml of 278 RLU and a luciferase reporter (SRE/STAT) RLU in rat stellate cell lysate at 3 ng/ml of 400 RLU. The luciferase reporter (SRE/STAT) RLU in rat stellate cell lysate at 10 ng/ml was 542 RLU, the luciferase reporter (SRE/STAT) RLU in rat stellate cell lysate at 30 ng/ml was 672 RLU and the luciferase reporter (SRE/STAT) RLU in rat stellate cell lysate at 100 ng/ml was 826 RLU. It also gave a luciferase reporter (SRE/STAT) RLU in rat stellate cell lysate at 300 ng/ml of 883 RLU.

— patent publication US20030109000A1
